Test results as given in paper PMC7948507, “Active site metals mediate an oligomeric equilibrium in Plasmodium M17 aminopeptidases” (The Journal of Biological Chemistry, 2020).

Experiments:
[1] = molecular target: the molecule itself; experiment: AUC; sedimentation velocity, 0.5 mg/ml, 20 °C, 40,000 rpm, 50 mM HEPES pH 8.0, 0.3 M NaCl, no metal added
[2] = molecular target: the molecule itself; experiment: SEC-MALS; 100 μl samples at 3 mg/ml, Superdex S200 Increase 10/300 GL, 50 mM HEPES pH 8.0, 0.3 M NaCl, no metal added
[3] = molecular target: the molecule itself; experiment: SEC; in the presence of 100 mM EDTA
[4] = molecular target: the molecule itself; experiment: AUC; sedimentation velocity, 0.5 mg/ml, 20 °C, 50 mM HEPES pH 8.0, 0.3 M NaCl with 50 μM MnCl2
[5] = molecular target: the molecule itself; experiment: crystal structure; 0.1 M HEPES pH 6.5, 15% PEG 3350, 0.15 M (NH4)2SO4; two hexamers in the asymmetric unit

Protein	stoichiometry N [2]	binding result [1]	further results
Plasmodium falciparum M17 aminopeptidase PfA-M17 (residues 84-605), wild type (enzyme, UniProt Q8IL11 84-605, looked up, M17 leucyl aminopeptidase of Plasmodium falciparum, residues 84-605; residues 1-83 (asparagine-rich low complexity region) omitted; In solution a metal-dependent equilibrium of monomer, dimer, tetramer and hexamer; also called PfLAP; PfA-M17 WT; source: E. coli BL21 DE3, purified (Ni-NTA, SEC)) MASEVPQVVSLDPTSIPIEYNTPIHDIKVQVYDIKGGCNVEEGLTIFLVNNPGKENGPVKISSKVNDKNVSEFLKDENMEKFNVKLGTSKHFYMFNDNKNSVAVGYVGCGSVADLSEADMKRVVLSLVTMLHDNKLSKLTVVFEINVDKNLFRFFLETLFYEYMTDERFKSTDKNVNMEYIKHLGVYINNADTYKEEVEKARVYYFGTYYASQLIAAPSNYCNPVSLSNAAVELAQKLNLEYKILGVKELEELKMGAYLSVGKGSMYPNKFIHLTYKSKGDVKKKIALVGKGITFDSGGYNLKAAPGSMIDLMKFDMSGCAAVLGCAYCVGTLKPENVEIHFLSAVCENMVSKNSYRPGDIITASNGKTIEVGNTDAEGRLTLADALVYAEKLGVDYIVDIATLTGAMLYSLGTSYAGVFGNNEELINKILNSSKTSNEPVWWLPIINEYRATLNSKYADINNISSSVKASSIVASLFLKEFVQNTAWAHIDIAGVSWNFKARKPKGFGVRLLTEFVLNDAL	6	–	stoichiometry N [1]: 2
Plasmodium vivax M17 aminopeptidase Pv-M17 (residues 73-621), wild type (enzyme, UniProt A5K3U9 73-621, looked up, M17 leucyl aminopeptidase of Plasmodium vivax, residues 73-621; N-terminal truncation of 72 residues; it is residues 73-621; Synthetic gene (DNA 2.0) in pJ404; also called PvLAP; Pv-M17 WT; source: E. coli BL21 DE3, purified (Ni-NTA, SEC)) MATTVPQVVSLDPTTIPIDYHTPIDDLSIEVKDISAEACPADEGLIVFLLNSAPKHSSSGGSGGNGGSAGSSGNGEGGAQIKINSSVKDNTINEFLKEGNMENFTGKLGTSKSFYIANDQKKYVSLAYVGCGPANEETELEIRKVAYALVTLLHDSKHKKVSIIFEIKIEEALFRFFLEHLFYEYVTDERFKSADKSTETDFIKNLSLHIANADAYKGQIDKARVYFYGTYYAAQLIAAPSNYCNPVSLSNAAVELAQKVNLECKILDVKELEELKMGAYLSVGKGSMYPNKFIHLTYKGAQTGASQNEKKKIALIGKGITFDSGGYNLKAAPGSMIDLMKFDMSGCAAVLGCAYCIGTIKPDNVEVHFLSAVCENMVSKNSYRPGDIITASNGKTIEVGNTDAEGRLTLADALVYAEKLGVDYIVDIATLTGAMLYSLGTSYAGVFGNNDQLINKILSSSKTSNEPVWWLPIINEYRSSLNSKYADLNNISSSVKASSVVASLFLKEFIENTPWAHIDIAGVSWNFKARKPKGFGVRLLTEFVLNDAV	2	–	stoichiometry N [3]: 4; stoichiometry N [4]: 6
PfA-M17 (D379A + E461L) (enzyme, also called PfA-M17(AL); PfA-M17 (AL); source: E. coli BL21 DE3, purified (Ni-NTA, SEC)) MASEVPQVVSLDPTSIPIEYNTPIHDIKVQVYDIKGGCNVEEGLTIFLVNNPGKENGPVKISSKVNDKNVSEFLKDENMEKFNVKLGTSKHFYMFNDNKNSVAVGYVGCGSVADLSEADMKRVVLSLVTMLHDNKLSKLTVVFEINVDKNLFRFFLETLFYEYMTDERFKSTDKNVNMEYIKHLGVYINNADTYKEEVEKARVYYFGTYYASQLIAAPSNYCNPVSLSNAAVELAQKLNLEYKILGVKELEELKMGAYLSVGKGSMYPNKFIHLTYKSKGDVKKKIALVGKGITFASGGYNLKAAPGSMIDLMKFDMSGCAAVLGCAYCVGTLKPENVEIHFLSAVCENMVSKNSYRPGDIITASNGKTIEVGNTDALGRLTLADALVYAEKLGVDYIVDIATLTGAMLYSLGTSYAGVFGNNEELINKILNSSKTSNEPVWWLPIINEYRATLNSKYADINNISSSVKASSIVASLFLKEFVQNTAWAHIDIAGVSWNFKARKPKGFGVRLLTEFVLNDAL	–	binds	–
Pv-M17 (D395A and E477L) (enzyme, also called Pv-M17(AL); Pv-M17 (AL); source: E. coli BL21 DE3, purified (Ni-NTA, SEC)) MATTVPQVVSLDPTTIPIDYHTPIDDLSIEVKDISAEACPADEGLIVFLLNSAPKHSSSGGSGGNGGSAGSSGNGEGGAQIKINSSVKDNTINEFLKEGNMENFTGKLGTSKSFYIANDQKKYVSLAYVGCGPANEETELEIRKVAYALVTLLHDSKHKKVSIIFEIKIEEALFRFFLEHLFYEYVTDERFKSADKSTETDFIKNLSLHIANADAYKGQIDKARVYFYGTYYAAQLIAAPSNYCNPVSLSNAAVELAQKVNLECKILDVKELEELKMGAYLSVGKGSMYPNKFIHLTYKGAQTGASQNEKKKIALIGKGITFASGGYNLKAAPGSMIDLMKFDMSGCAAVLGCAYCIGTIKPDNVEVHFLSAVCENMVSKNSYRPGDIITASNGKTIEVGNTDALGRLTLADALVYAEKLGVDYIVDIATLTGAMLYSLGTSYAGVFGNNDQLINKILSSSKTSNEPVWWLPIINEYRSSLNSKYADLNNISSSVKASSVVASLFLKEFIENTPWAHIDIAGVSWNFKARKPKGFGVRLLTEFVLNDAV	–	binds	–
Pv-M17Δ125-151 (enzyme, also called Pv-M17 N-terminal loop deletion mutant; source: E. coli BL21 DE3, purified (Ni-NTA, SEC)) MATTVPQVVSLDPTTIPIDYHTPIDDLSIEVKDISAEACPADEGLIVFLLNSQIKINSSVKDNTINEFLKEGNMENFTGKLGTSKSFYIANDQKKYVSLAYVGCGPANEETELEIRKVAYALVTLLHDSKHKKVSIIFEIKIEEALFRFFLEHLFYEYVTDERFKSADKSTETDFIKNLSLHIANADAYKGQIDKARVYFYGTYYAAQLIAAPSNYCNPVSLSNAAVELAQKVNLECKILDVKELEELKMGAYLSVGKGSMYPNKFIHLTYKGAQTGASQNEKKKIALIGKGITFDSGGYNLKAAPGSMIDLMKFDMSGCAAVLGCAYCIGTIKPDNVEVHFLSAVCENMVSKNSYRPGDIITASNGKTIEVGNTDAEGRLTLADALVYAEKLGVDYIVDIATLTGAMLYSLGTSYAGVFGNNDQLINKILSSSKTSNEPVWWLPIINEYRSSLNSKYADLNNISSSVKASSVVASLFLKEFIENTPWAHIDIAGVSWNFKARKPKGFGVRLLTEFVLNDAV	–	–	stoichiometry N [5]: 6
